B1: HDV Ribozyme (parent)
chain: GGCCGGCAUGGUCCCAGCCUCCUCGCUGGCGCCGGCUGGGCAACAUUCCGAGGGGACCGUCCCCUCGGUAAUGGCGAAUGGGACCCA

Variants of: B1
Test: self-cleavage, relative activity (ratio to wild type); higher = more cleavage; co-transcriptional

Variant | self-cleavage
GGCCGGCAUGGUCCCAGCCUCCUCGCUGGCGCCGGCUGGGUAACAUUCCGAGGGGACCUUCCCCUCGGUAAUGGCGAAUGGGACCCA | 0.937
GGCCGGCAUGGUCCCAGCCUCCUCGCUGGCGCCGGCUGGGUAACAUUCCGAGGGGACCCUCCCCUCGGUAAUGGCGAAUGGGACCCA | 0.963
GGCCGGCAUGGUCCCAGCCUCCUCGCUGGCGCCGGCUGGGUAACAUUCCGAGGGGACCAUCCCCUCGGUAAUGGCGAAUGGGACCCA | 1
GGCCGGCAUGGUCCCAGCCUCCUCGCUGGCGCCGGCUGGGCCACAUUCCGAGGGGACCGUCCCCUCGGUAAUGGCGAAUGGGACCCA | 0.333
GGCCGGCAUGGUCCCAGCCUCCUCGCUGGCGCCGGCUGGGUAACAUUACGAGGGGACCGUCCCCUCGGUAAUGGCGAAUGGGACCCA | 1.07
GGCCGGCAUGGUCCCAGCCUCCUCGCUGGCGCCGGCUGGGUAACAUUCCGAGGGGACCGUCCCCUCGGUAAUGGCGAAUGGGACCCG | 0.961
GGCCGGCAUGGUCCCAGCCUCCUCGCUGGCGCCGGCUGGGUAACAUUCCGAGGGGACCGUCCCCUCGGUAAUGGCGAAUGGGACCCC | 1.09
GGCCGGCAUGGUCCCAGCCUCCUCGCUGGCGCCGGCUGGGUAAUAUUCCGAGGGGACCGUCCCCUCGGUAAUGGCGAAUGGGACCCA | 0.516
GGCCGGCAUGGUCCCAGCCUCCUCGCUGGCGCCGGCUGGGUAACAUUCCGAGGGGACCGUCCCCUCGGGAAUGGCGAAUGGGACCCA | 0.946
GGCCGGCAUGGUCCCAGCCUCCUCGCUGGCGCCGGCUGGGUAACAUUCCGAGGGGACCGUCCCCUCGGAAAUGGCGAAUGGGACCCA | 1.08
GGCCGGCAUGGUCCCAGCCUCCUCGCUGGCGCCGGCUGGGUAACAUUCCGAGGGGACGGUCCCCUCGGUAAUGGCGAAUGGGACCCA | 0.889
GGCCGGCAUGGUCCCAGCCUCCUCGCUGGCGCCGGCUGGGUAACAUUCCGAGGGGACAGUCCCCUCGGUAAUGGCGAAUGGGACCCA | 0.962
GGCCGGCAUGGUCCCAGCCUCCUCGCUGGCGCCGGCUGGGUAACAUUCCGAGGGGACCGUCCGCUCGGUAAUGGCGAAUGGGACCCA | 0.739
GGCCGGCAUGGUCCCAGCCUCCUCGCUGGCGCCGGCUGGGUAACAUUCCGAGGGGACCGUCCCCUCGGUAAUGGCGAAUGGGAACCA | 0.78
GGCCGGCAUGGUCCCAGCCUCCUCGCUGGCGCCGGCUGGGUAACAUUCCGAGGGCACCGUCCCCUCGGUAAUGGCGAAUGGGACCCA | 0.885
GGCCGGCAUGGUCCCAGCCUCCUCGCUGGCGCCGGCUGGGUAACAUUCCGAAGGGACCGUCCCCUCGGUAAUGGCGAAUGGGACCCA | 1.06
GGCCGGCAUGGUCCCAGCCUCCUCGCUGGCGCCGGCUGGGUAACAUUCCGAGGGGACCGUCCCCUAGGUAAUGGCGAAUGGGACCCA | 0.719
GGCCGGCAUGGUCCCAGCCUCCUCGCUGGCGCCGGCUGGGUAACAUUCCGAGGGGACCGUCCCCUUGGUAAUGGCGAAUGGGACCCA | 1
GGCCGGCAUGGUCCCAGCCUCCUCGCUGGCGCCGGCUGGGUAACAUUCCGAGGGGACCGUCCCCACGGUAAUGGCGAAUGGGACCCA | 0.92
GGCCGGCAUGGUCCCAGCCUCCUCGCUGGCGCCGGCUGGGUAACAUUCCGAGGGGACCGUCCCCUCGGUAAUUGCGAAUGGGACCCA | 0.511
GGCCGGCAUGGUCCCAGCCUCCUCGCUGGCGCCGGCUGGGUAACAUUCCGAGGGGACCGUCCCCUCGGUAAUGACGAAUGGGACCCA | 0.637
GGCCGGCAUGGUCCCAGCCUCCUCGCUGGCGCCGGCUGGGUAACAUUCCGAGGGGACCGGCCCCUCGGUAAUGGCGAAUGGGACCCA | 1.1

Variant | self-cleavage
GGCCGGCAUGGUCCCAGCCUCCUCGCUGGCGCCGGCUGGGUAACAUUCCGAGGGGACCGUCCCCUCCGUAAUGGCGAAUGGGACCCA | 0.554
GGCCGGCAUGGUCCCAGCCUCCUCGCUGGCGCCGGCUGGGUAACAUUCCGAGGGGACCGUCCCCUCAGUAAUGGCGAAUGGGACCCA | 0.439
GGCCGGCAUGGUCCCAGCCUCCUCGCUGGCGCCGGCUGGGUAACAUUCCGAGGGGACCGUCCCCUCUGUAAUGGCGAAUGGGACCCA | 0.604
GGCCGGCAUGGUCCCAGCCUCCUCGCUGGCGCCGGCUGGGUAACAUUCCGAGUGGACCGUCCCCUCGGUAAUGGCGAAUGGGACCCA | 1.1
GGCCGGCAUGGUCCCAGCCUCCUCGCUGGCGCCGGCUGGGUAACAUUCCGAGCGGACCGUCCCCUCGGUAAUGGCGAAUGGGACCCA | 1.05
GGCCGGCAUGGUCCCAGCCUCCUCGCUGGCGCCGGCUGGGUAACAUACCGAGGGGACCGUCCCCUCGGUAAUGGCGAAUGGGACCCA | 0.96
GGCCGGCAUGGUCCCAGCCUCCUCGCUGGCGCCGGCUGGGUAACAUUCCGAGGGGACCGUCCCCUCGGUUAUGGCGAAUGGGACCCA | 0.936
GGCCGGCAUGGUCCCAGCCUCCUCGCUGGCGCCGGCUGGGUAACAUUCCGAGGGGACCGUCCCCUCGGUAAUGGCAAAUGGGACCCA | 0.95
GGCCGGCAUGGUCCCAGCCUCCUCGCUGGCGCCGGCUGGGUAACAUUCCGAGGGGACCGUCCCCUCGGUAAUGGCGAUUGGGACCCA | 0.199
GGCCGGCAUGGUCCCAGCCUCCUCGCUGGCGCCGGCUGGGUAACAUUCCGAGGGGACCGUCCCCUCGGUAAUGGCGACUGGGACCCA | 0.178
GGCCGGCAUGGUCCCAGCCUCCUCGCUGGCGCCGGCUGGGUAACAUUCCGAGGGGACCGUCCCCUCGGUAAUGGCGAAUGGGACCGA | 0.784
GGCCGGCAUGGUCCCAGCCUCCUCGCUGGCGCCGGCUGGGUAACAUUCCGAGGGGACCGUCCCCUCGGUAAUGGCGAAUGGGACCAA | 1.04
GGCCGGCAUGGUCCCAGCCUCCUCGCUGGCGCCGGCUGGGUAACAUUCCGGGGGGACCGUCCCCUCGGUAAUGGCGAAUGGGACCCA | 0.914
GGCCGGCAUGGUCCCAGCCUCCUCGCUGGCGCCGGCUGGGUAACAUUCCGAGGGGACCGUUCCCUCGGUAAUGGCGAAUGGGACCCA | 0.946
GGCCGGCAUGGUCCCAGCCUCCUCGCUGGCGCCGGCUGGGUAACAUUCCGAGGGGACCGUCCCCUCGGUAUUGGCGAAUGGGACCCA | 0.897
GGCCGGCAUGGUCCCAGCCUCCUCGCUGGCGCCGGCUGGGUAACAUUCUGAGGGGACCGUCCCCUCGGUAAUGGCGAAUGGGACCCA | 0.749
GGCCGGCAUGGUCCCAGCCUCCUCGCUGGCGCCGGCUGGGUAACACUCCGAGGGGACCGUCCCCUCGGUAAUGGCGAAUGGGACCCA | 0.734
GGCCGGCAUGGUCCCAGCCUCCUCGCUGGCGCCGGCUGGGUAACAUUCCGAGGGGACCGUCCCCUCGGUAAUGGCGAAUGGCACCCA | 0.136
GGCCGGCAUGGUCCCAGCCUCCUCGCUGGCGCCGGCUGGGUAACAUUCCGAGGGGACCGUCCCCUCGGUAAUGGCGAAUAGGACCCA | 0.283
GGCCGGCAUGGUCCCAGCCUCCUCGCUGGCGCCGGCUGGGUAACAUUCCGAGGGGACCGUCCCCUCGGUAAAGGCGAAUGGGACCCA | 0.656
GGCCGGCAUGGUCCCAGCCUCCUCGCUGGCGCCGGCUGGGUAACAUUCCGAGGGGACCGUCCCCUCGGUAACGGCGAAUGGGACCCA | 0.375
GGCCGGCAUGGUCCCAGCCUCCUCGCUGGCGCCGGCUGGGUAACAUUCCGAGGGGACCGUCCCCUCGGUAAGGGCGAAUGGGACCCA | 0.534

Variant | self-cleavage
GGCCGGCAUGGUCCCAGCCUCCUCGCUGGCGCCGGCUGGGUAACAUUCCGAGGGGACCGUCCCCUCGGUAAUGGUGAAUGGGACCCA | 0.249
GGCCGGCAUGGUCCCAGCCUCCUCGCUGGCGCCGGCUGGGUAACAUUCCGAGGGGACCGUCACCUCGGUAAUGGCGAAUGGGACCCA | 1.02
GGCCGGCAUGGUCCCAGCCUCCUCGCUGGCGCCGGCUGGGUAACAUUCCGAGGGGACCGUCCCCUCGGUAAUGGCGAAUGAGACCCA | 0.237
GGCCGGCAUGGUCCCAGCCUCCUCGCUGGCGCCGGCUGGGUAACAUUCCGAGGGGACCGUCCCCUCGGUAAUGGCGAAUGCGACCCA | 0.168
GGCCGGCAUGGUCCCAGCCUCCUCGCUGGCGCCGGCUGGGUAACAUUCCGAGGGGACCGUCCCCUCGGUAAUGGCGAAUGUGACCCA | 0.205
GGCCGGCAUGGUCCCAGCCUCCUCGCUGGCGCCGGCUGGGUAACAUUCCGAGGGGACCGUCCCCUCGGUAAUGGCGAAUGGGACUCA | 0.845
GGCCGGCAUGGUCCCAGCCUCCUCGCUGGCGCCGGCUGGGUAACAUUCCGAGGGGACCGUCCCCUCGGUAAUGGCGGAUGGGACCCA | 0.95
GGCCGGCAUGGUCCCAGCCUCCUCGCUGGCGCCGGCUGGGUAACAUUCCGAGGGGACCGUCCCCUCGGUAAUGGCGCAUGGGACCCA | 0.341
GGCCGGCAUGGUCCCAGCCUCCUCGCUGGCGCCGGCUGGGUAACAUUCCGAGGGGACCGUCCCCUCGGUAAUGGCGUAUGGGACCCA | 0.475
GGCCGGCAUGGUCCCAGCCUCCUCGCUGGCGCCGGCUGGGCCCCAUUCCGAGGGGACCGUCCCCUCGGUAAUGGCGAAUGGGACCCA | 0
GGCCGGCAUGGUCCCAGCCUCCUCGCUGGCGCCGGCUGGGUAACAUUCCGAGGUGACCGUCCCCUCGGUAAUGGCGAAUGGGACCCA | 0.931
GGCCGGCAUGGUCCCAGCCUCCUCGCUGGCGCCGGCUGGGUAACAUUCCGAGGCGACCGUCCCCUCGGUAAUGGCGAAUGGGACCCA | 0.63
GGCCGGCAUGGUCCCAGCCUCCUCGCUGGCGCCGGCUGGGUAACAUUCCGAGGGGGCCGUCCCCUCGGUAAUGGCGAAUGGGACCCA | 0.7
GGCCGGCAUGGUCCCAGCCUCCUCGCUGGCGCCGGCUGGGUAACAUUCCGAGGGGUCCGUCCCCUCGGUAAUGGCGAAUGGGACCCA | 1.09
GGCCGGCAUGGUCCCAGCCUCCUCGCUGGCGCCGGCUGGGUAACAUUCCGAGGGGACCGUCCCCUCGGUAAUGGCGAAUGGGCCCCA | 0.332
GGCCGGCAUGGUCCCAGCCUCCUCGCUGGCGCCGGCUGGGUAACAUUCCGAGGGGACCGUCCCCUCGGUAAUGGCGAAUGGGUCCCA | 0.583
GGCCGGCAUGGUCCCAGCCUCCUCGCUGGCGCCGGCUGGGUAACAUUCCGAGGGGAUCGUCCCCUCGGUAAUGGCGAAUGGGACCCA | 1.12
GGCCGGCAUGGUCCCAGCCUCCUCGCUGGCGCCGGCUGGGUAACAUUCCUAGGGGACCGUCCCCUCGGUAAUGGCGAAUGGGACCCA | 0.933
GGCCGGCAUGGUCCCAGCCUCCUCGCUGGCGCCGGCUGGGUAACAUUCCAAGGGGACCGUCCCCUCGGUAAUGGCGAAUGGGACCCA | 1.01
GGCCGGCAUGGUCCCAGCCUCCUCGCUGGCGCCGGCUGGGUAACAUUCCCAGGGGACCGUCCCCUCGGUAAUGGCGAAUGGGACCCA | 0.67

Reference: the RNAGym collection of RNA variant scans (doi:10.7554/elife.80360)
